Measurements reported in patent US20250258178A1 (SHIONOGI, published 2025).

Tests used:
Assay in all cases: peptide microarray, fluorescent anti-mouse IgG
Peptide #6 = molecular target: T1, Peptide #6 (human)
T1 construct: 15-mer of human HRG printed on a PEPperCHIP peptide microarray
T1 peptide: GPPLPQGPPPLLPMS
Description: (§1) An overlapping peptide scanning method was performed to find out specific antibody-binding peptide epitopes. The amino acid sequence of the HRG protein was obtained in NCBI protein database. PEPperPrint (registered trademark) (Heidelberg, Germany) was commissioned to prepare PEPperCHIP peptide microarrays designed from HRG protein sequences. Each peptide consisted of an overlapping peptide library having 15 amino acid residues overlapping 14 amino acid residues and was extended at the N- and C-terminus with a neutral GSGSGSG linker to ensure that the peptides were separated from each other. […] After treatment of 21 types of anti-HRG monoclonal antibodies, it stained with an anti-mouse IgG polyclonal secondary antibody followed by reading fluorescence intensity on a scanner to quantify protein-antibody binding.
(§2) Each microarray was processed as follows. Before incubation with a sample, a standard buffer was applied on slides followed by treating with a blocking buffer. The microarray was treated with a fluorescently-labeled anti-mouse IgG secondary antibody followed by the measurement of background fluorescence intensity caused by non-specific interactions using a scanner.
(§3) The microarray was incubated with the 21 types of anti-HRG monoclonal antibodies. The microarray was stained with a fluorescently labeled anti-mouse IgG secondary antibody. The fluorescence intensity at each position was measured by a scanner.

Peptide #3 = molecular target: T2, Peptide #3 (human)
T2 construct: 15-mer of human HRG printed on a PEPperCHIP peptide microarray
T2 peptide: HSHGPPLPQGPPPLL
Description: as §1, §2, §3

Peptide #2 = molecular target: T3, Peptide #2 (human)
T3 construct: 15-mer of human HRG printed on a PEPperCHIP peptide microarray
T3 peptide: DHSHGPPLPQGPPPL
Description: as §1, §2, §3

Peptide #4 = molecular target: T4, Peptide #4 (human)
T4 construct: 15-mer of human HRG printed on a PEPperCHIP peptide microarray
T4 peptide: SHGPPLPQGPPPLLP
Description: as §1, §2, §3

Peptide #7 = molecular target: T5, Peptide #7 (human)
T5 construct: 15-mer of human HRG printed on a PEPperCHIP peptide microarray
T5 peptide: PPLPQGPPPLLPMSC
Description: as §1, §2, §3

Peptide #8 = molecular target: T6, Peptide #8 (human)
T6 construct: 15-mer of human HRG printed on a PEPperCHIP peptide microarray
T6 peptide: PLPQGPPPLLPMSCS
Description: as §1, §2, §3

Peptide #5 = molecular target: T7, Peptide #5 (human)
T7 construct: 15-mer of human HRG printed on a PEPperCHIP peptide microarray
T7 peptide: HGPPLPQGPPPLLPM
Description: as §1, §2, §3

Peptide #19 = molecular target: T8, Peptide #19 (human)
T8 construct: 15-mer of human HRG printed on a PEPperCHIP peptide microarray
T8 peptide: GHHPHGHHPHCHDFQ
Description: as §1, §2, §3

Peptide #18 = molecular target: T9, Peptide #18 (human)
T9 construct: 15-mer of human HRG printed on a PEPperCHIP peptide microarray
T9 peptide: HGHHPHGHHPHCHDF
Description: as §1, §2, §3

Peptide #15 = molecular target: T10, Peptide #15 (human)
T10 construct: 15-mer of human HRG on the peptide microarray; the printed position spans only 14 residues
T10 peptide: HHPHGHHPHGHHPHC
Description: as §1, §2, §3

Peptide #11 = molecular target: T11, Peptide #11 (human)
T11 construct: 15-mer of human HRG on the peptide microarray; the printed position spans only 14 residues
T11 peptide: HPHGHHPHGHHPHGH
Description: as §1, §2, §3

Peptide #14 = molecular target: T12, Peptide #14 (human)
T12 construct: 15-mer of human HRG on the peptide microarray; the printed position spans only 14 residues
T12 peptide: GHHPHGHHPHGHHPH
Description: as §1, §2, §3

Peptide #24 = molecular target: T13, Peptide #24 (human)
T13 construct: 15-mer of human HRG printed on a PEPperCHIP peptide microarray
T13 peptide: GHHPHCHDFQDYGPC
Description: as §1, §2, §3

Peptide #25 = molecular target: T14, Peptide #25 (human)
T14 construct: 15-mer of human HRG printed on a PEPperCHIP peptide microarray
T14 peptide: HHPHCHDFQDYGPCD
Description: as §1, §2, §3

Peptide #20 = molecular target: T15, Peptide #20 (human)
T15 construct: 15-mer of human HRG printed on a PEPperCHIP peptide microarray
T15 peptide: HHPHGHHPHCHDFQD
Description: as §1, §2, §3

Peptide #22 = molecular target: T16, Peptide #22 (human)
T16 construct: 15-mer of human HRG printed on a PEPperCHIP peptide microarray
T16 peptide: PHGHHPHCHDFQDYG
Description: as §1, §2, §3

Peptide #16 = molecular target: T17, Peptide #16 (human)
T17 construct: 15-mer of human HRG on the peptide microarray; the printed position spans only 14 residues
T17 peptide: HPHGHHPHGHHPHCH
Description: as §1, §2, §3

Peptide #12 = molecular target: T18, Peptide #12 (human)
T18 construct: 15-mer of human HRG on the peptide microarray; the printed position spans only 14 residues
T18 peptide: PHGHHPHGHHPHGHH
Description: as §1, §2, §3

Peptide #21 = molecular target: T19, Peptide #21 (human)
T19 construct: 15-mer of human HRG printed on a PEPperCHIP peptide microarray
T19 peptide: HPHGHHPHCHDFQDY
Description: as §1, §2, §3

Peptide #26 = molecular target: T20, Peptide #26 (human)
T20 construct: 15-mer of human HRG printed on a PEPperCHIP peptide microarray
T20 peptide: HPHCHDFQDYGPCDP
Description: as §1, §2, §3

Peptide #23 = molecular target: T21, Peptide #23 (human)
T21 construct: 15-mer of human HRG printed on a PEPperCHIP peptide microarray
T21 peptide: HGHHPHCHDFQDYGP
Description: as §1, §2, §3

Peptide #13 = molecular target: T22, Peptide #13 (human)
T22 construct: 15-mer of human HRG on the peptide microarray; the printed position spans only 14 residues
T22 peptide: HGHHPHGHHPHGHHP
Description: as §1, §2, §3

Peptide #17 = molecular target: T23, Peptide #17 (human)
T23 construct: 15-mer of human HRG printed on a PEPperCHIP peptide microarray
T23 peptide: PHGHHPHGHHPHCHD
Description: as §1, §2, §3

Measured: binding result

B1: anti-HRG monoclonal antibody 69-1A (antibody, V domains shown)
VH: EVKLEESGGGLVQPGGSMKLSCAASGFTFSDAWMDWVRQSPEKGLEWVAEIRSKANNHGTYYAESVKGRFTISRDDSKSSVYLRMNSLSAEDTGIYYCTRPFAYWGQGTLVTVSA
VL: DVVVTQTPLSLPVSLGDQASISCRSSQSLVHIDGNTYFHWYVQKPGQSPKLLIYKVSNRFSGVPDRFSGSGSGTDFTLKISRVEAEDLGVYFCSQSTHVPLTFGAGTKLELK
notes: Mouse hybridoma monoclonal; also called clone No. 69-1A
binds: Peptide #6 | Peptide #3 | Peptide #2 | Peptide #4 | Peptide #7 | Peptide #8 | Peptide #5

B2: anti-HRG monoclonal antibody 75-2D (antibody, V domains shown)
VH: QVQLQQSGAELMKPGASVKISCKATGYTFSSYWIEWVKQRPGHGLEWIGEILPGSGRTNYNEKFKGKATFTADTSSNTAYMQLSSLTSEDSAVYYCARYSYFYYFDYWGQGTTLTVSS
VL: DNVLTQSPAIMSASLGERVTMTCTASSSVSSSYLHWYQQKPGSSPKLWIYSTSNLASGVPARFSGSGSGTSYSLTISSMEAEDAATYYCHQYHRSPWTFGGGTKLEIK
notes: Mouse hybridoma monoclonal; also called clone No. 75-2D
not listed: Peptide #6 | Peptide #3 | Peptide #2 | Peptide #4 | Peptide #7 | Peptide #8 | Peptide #5
binds: all other assays above
